Experimental data as given in US20260201045A1.

Target: full length human CNTFR (hCNTFR, amino acids 1-372, UniProtKB/Swiss-Prot Accession #P26992) (human) (UniProt P26992)
Assay: cell-based or functional assay

Sequence of full length human CNTFR (P26992 23-342 limits assumed, one chain of several): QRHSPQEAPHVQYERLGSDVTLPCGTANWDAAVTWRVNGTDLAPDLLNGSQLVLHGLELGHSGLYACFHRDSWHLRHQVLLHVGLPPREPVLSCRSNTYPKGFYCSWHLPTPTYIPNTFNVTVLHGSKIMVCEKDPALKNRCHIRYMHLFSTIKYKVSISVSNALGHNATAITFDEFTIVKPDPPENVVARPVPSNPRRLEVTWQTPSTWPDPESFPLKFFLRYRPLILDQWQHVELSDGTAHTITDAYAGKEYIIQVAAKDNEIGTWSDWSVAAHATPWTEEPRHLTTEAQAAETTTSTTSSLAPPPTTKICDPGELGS

**Q.** Which Ligand EC50 [M], activation of IMR-32/STAT3-luc cells (luciferase) does the source give for “human Ciliary Neurotrophic Factor (hCNTF, R&D Systems, 257-NT) (from UniProt P26441 2-200) (ligand)” here?
**A.** Its Ligand EC50 [M], activation of IMR-32/STAT3-luc cells (luciferase) is 2.26e-12 M.

**Q.** With “human Cytokine-like Factor 1/human Cardiotrophin-like cytokine complex (hCLF-1/CLC, R&D Systems 1151-CL) (from UniProt O75462 38-422; Q9UBD9 28-225) (ligand)” as the substance, how does the Ligand EC50 [M], activation of IMR-32/STAT3-luc cells (luciferase) read?
**A.** Its Ligand EC50 [M], activation of IMR-32/STAT3-luc cells (luciferase) is 9.63e-11 M.
